Laboratory results reported in US20060257938A1, “Method of screening for drugs that block ligand binding to a lipid binding protein” (priority 2005, published 2006).
Where “and” joins values, the source holds several entries; their conditions need not be identical. Identical values can stand only once.

B1: 14Q, 72A (protein, listed as Rattus norvegicus)
chain: AFDGTWKVDRNENQEKFMEKMGINVVKRKLGAHDNLKLTITQEGNKFTVKESSNFRNIDVVFELGVDFAYSAADGTELTGTWTMEGNKLVGKFKRVDNGKELIAVREISGNELIQTYTYEGVEAKRIFKKE
modifications: PEPTIDE (1)...(131) wild-type rat intestinal fatty acid binding protein
B2: 17D, 72A (protein, listed as Rattus norvegicus)
chain: AFDGTWKVDRNENYEKDMEKMGINVVKRKLGAHDNLKLTITQEGNKFTVKESSNFRNIDVVFELGVDFAYSAADGTELTGTWTMEGNKLVGKFKRVDNGKELIAVREISGNELIQTYTYEGVEAKRIFKKE
modifications: PEPTIDE (1)...(131) wild-type rat intestinal fatty acid binding protein
B3: 102L, 72A (protein, listed as Rattus norvegicus)
chain: AFDGTWKVDRNENYEKFMEKMGINVVKRKLGAHDNLKLTITQEGNKFTVKESSNFRNIDVVFELGVDFAYSAADGTELTGTWTMEGNKLVGKFKRVDNGKELIAVREISGNELIQTYTYEGVEAKRIFKKE
modifications: PEPTIDE (1)...(131) wild-type rat intestinal fatty acid binding protein
B4: 17I, 72A (protein, listed as Rattus norvegicus)
chain: AFDGTWKVDRNENYEKIMEKMGINVVKRKLGAHDNLKLTITQEGNKFTVKESSNFRNIDVVFELGVDFAYSAADGTELTGTWTMEGNKLVGKFKRVDNGKELIAVREISGNELIQTYTYEGVEAKRIFKKE
modifications: PEPTIDE (1)...(131) wild-type rat intestinal fatty acid binding protein
B5: 17F, 72A (protein, listed as Rattus norvegicus)
chain: AFDGTWKVDRNENYEKFMEKMGINVVKRKLGAHDNLKLTITQEGNKFTVKESSNFRNIDVVFELGVDFAYSAADGTELTGTWTMEGNKLVGKFKRVDNGKELIAVREISGNELIQTYTYEGVEAKRIFKKE
modifications: PEPTIDE (1)...(131) wild-type rat intestinal fatty acid binding protein
B6: 17G, 72A (protein, listed as Rattus norvegicus)
chain: AFDGTWKVDRNENYEKGMEKMGINVVKRKLGAHDNLKLTITQEGNKFTVKESSNFRNIDVVFELGVDFAYSAADGTELTGTWTMEGNKLVGKFKRVDNGKELIAVREISGNELIQTYTYEGVEAKRIFKKE
modifications: PEPTIDE (1)...(131) wild-type rat intestinal fatty acid binding protein
B7: 17A, 72A (protein, listed as Rattus norvegicus)
chain: AFDGTWKVDRNENYEKAMEKMGINVVKRKLGAHDNLKLTITQEGNKFTVKESSNFRNIDVVFELGVDFAYSAADGTELTGTWTMEGNKLVGKFKRVDNGKELIAVREISGNELIQTYTYEGVEAKRIFKKE
modifications: PEPTIDE (1)...(131) wild-type rat intestinal fatty acid binding protein
B8: 17C, 72A (protein, listed as Rattus norvegicus)
chain: AFDGTWKVDRNENYEKCMEKMGINVVKRKLGAHDNLKLTITQEGNKFTVKESSNFRNIDVVFELGVDFAYSAADGTELTGTWTMEGNKLVGKFKRVDNGKELIAVREISGNELIQTYTYEGVEAKRIFKKE
modifications: PEPTIDE (1)...(131) wild-type rat intestinal fatty acid binding protein
B9: 14W, 72A (protein, listed as Rattus norvegicus)
chain: AFDGTWKVDRNENWEKFMEKMGINVVKRKLGAHDNLKLTITQEGNKFTVKESSNFRNIDVVFELGVDFAYSAADGTELTGTWTMEGNKLVGKFKRVDNGKELIAVREISGNELIQTYTYEGVEAKRIFKKE
modifications: PEPTIDE (1)...(131) wild-type rat intestinal fatty acid binding protein
B10: 17E, 72A (protein, listed as Rattus norvegicus)
chain: AFDGTWKVDRNENYEKEMEKMGINVVKRKLGAHDNLKLTITQEGNKFTVKESSNFRNIDVVFELGVDFAYSAADGTELTGTWTMEGNKLVGKFKRVDNGKELIAVREISGNELIQTYTYEGVEAKRIFKKE
modifications: PEPTIDE (1)...(131) wild-type rat intestinal fatty acid binding protein
B11: 17K 72A (protein, listed as Rattus norvegicus)
chain: AFDGTWKVDRNENYEKKMEKMGINVVKRKLGAHDNLKLTITQEGNKFTVKESSNFRNIDVVFELGVDFAYSAADGTELTGTWTMEGNKLVGKFKRVDNGKELIAVREISGNELIQTYTYEGVEAKRIFKKE
modifications: PEPTIDE (1)...(131) wild-type rat intestinal fatty acid binding protein
B12: 14V, 72A (protein, listed as Rattus norvegicus)
chain: AFDGTWKVDRNENVEKFMEKMGINVVKRKLGAHDNLKLTITQEGNKFTVKESSNFRNIDVVFELGVDFAYSAADGTELTGTWTMEGNKLVGKFKRVDNGKELIAVREISGNELIQTYTYEGVEAKRIFKKE
modifications: PEPTIDE (1)...(131) wild-type rat intestinal fatty acid binding protein
B13: 102K, 72A (protein, listed as Rattus norvegicus)
chain: AFDGTWKVDRNENYEKFMEKMGINVVKRKLGAHDNLKLTITQEGNKFTVKESSNFRNIDVVFELGVDFAYSAADGTELTGTWTMEGNKLVGKFKRVDNGKEKIAVREISGNELIQTYTYEGVEAKRIFKKE
modifications: PEPTIDE (1)...(131) wild-type rat intestinal fatty acid binding protein
B14: 17H, 72A (protein, listed as Rattus norvegicus)
chain: AFDGTWKVDRNENYEKHMEKMGINVVKRKLGAHDNLKLTITQEGNKFTVKESSNFRNIDVVFELGVDFAYSAADGTELTGTWTMEGNKLVGKFKRVDNGKELIAVREISGNELIQTYTYEGVEAKRIFKKE
modifications: PEPTIDE (1)...(131) wild-type rat intestinal fatty acid binding protein
B15: 14S, 72A (protein, listed as Rattus norvegicus)
chain: AFDGTWKVDRNENSEKFMEKMGINVVKRKLGAHDNLKLTITQEGNKFTVKESSNFRNIDVVFELGVDFAYSAADGTELTGTWTMEGNKLVGKFKRVDNGKELIAVREISGNELIQTYTYEGVEAKRIFKKE
modifications: PEPTIDE (1)...(131) wild-type rat intestinal fatty acid binding protein
B16: 14R, 72A (protein, listed as Rattus norvegicus)
chain: AFDGTWKVDRNENREKFMEKMGINVVKRKLGAHDNLKLTITQEGNKFTVKESSNFRNIDVVFELGVDFAYSAADGTELTGTWTMEGNKLVGKFKRVDNGKELIAVREISGNELIQTYTYEGVEAKRIFKKE
modifications: PEPTIDE (1)...(131) wild-type rat intestinal fatty acid binding protein
B17: 14T, 72A (protein, listed as Rattus norvegicus)
chain: AFDGTWKVDRNENTEKFMEKMGINVVKRKLGAHDNLKLTITQEGNKFTVKESSNFRNIDVVFELGVDFAYSAADGTELTGTWTMEGNKLVGKFKRVDNGKELIAVREISGNELIQTYTYEGVEAKRIFKKE
modifications: PEPTIDE (1)...(131) wild-type rat intestinal fatty acid binding protein

What was measured:
Type in all cases: binding
[1] = Probe fluorescence ratio response to linoleic acid relative to ADIFAB2; details: response relative to ADIFAB2
In short: (§1)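 Each fatty acid's response was expressed relative to ADIFAB2, the rI-FABP-L72A probe, as ΔR/ΔRreference. ΔR is the change in the background-corrected two-wavelength intensity ratio R=Fλ1/Fλ2 from its analyte-free baseline R0. Emission was read near about 420-480 nm for unbound and about 495-580 nm for FFA-bound probe.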

[2] = Probe fluorescence ratio response to oleic acid relative to ADIFAB2; details: response relative to ADIFAB2
In short: as §1

[3] = Probe fluorescence ratio response to linolenic acid relative to ADIFAB2; details: response relative to ADIFAB2
In short: as §1

[4] = Probe fluorescence ratio response to arachidonic acid relative to ADIFAB2; details: arachidonic acid; response relative to ADIFAB2
In short: as §1

[5] = Probe fluorescence ratio response to palmitic acid relative to ADIFAB2; details: response relative to ADIFAB2
In short: as §1

| Molecule | DR/DR LA [1] | DR/DR OA [2] | DR/DR LNA [3] | DR/DR AA [4] | DR/DR PA [5] |
| --- | --- | --- | --- | --- | --- |
| B1 | 0.48 | 0.29 | 0.52 | 0.50 | 0.33 |
| B2 | 0.31 | 0.26 | 0.34 | 0.28 | 0.16 |
| B3 | 1.40 and 1.267 | 1.40 and 1.366 | 1.41 and 1.284 | 1.25 and 1.103 | 0.97 and 1.012 |
| B4 | 0.50 and 0.499 | 0.62 and 0.624 | 0.54 and 0.541 | 0.64 | 0.28 and 0.283 |
| B5 | 1.35 | 1.42 | 1.38 | 1.37 | 1.14 |
| B6 | 0.58 | 0.52 | 0.62 | 0.48 | 0.28 |
| B7 | 0.56 | 0.38 | 0.97 | 0.53 | 0.24 |
| B8 | 0.25 | 0.31 | 0.26 | 0.15 | 0.10 |
| B9 | 0.33 | 0.26 | 0.31 | 0.30 | 0.23 |
| B10 | 0.90 | 0.84 | 0.88 | 0.80 | 0.53 |
| B11 | 0.33 | 0.31 | 0.29 | 0.28 | 0.13 |
| B12 | 0.84 and 0.836 | 0.51 and 0.513 | 0.87 and 0.868 | 0.76 and 0.756 | 0.43 |
| B13 | 0.55 | 0.48 | 0.51 | 0.47 | 0.23 |
| B14 | 0.48 | 0.40 | 0.50 | 0.52 | 0.22 |
| B15 | 0.53 | 0.33 | 0.53 | 0.46 | 0.27 |
| B16 | 0.56 | 0.26 | 0.51 | 0.49 | 0.26 |
| B17 | 0.76 | 0.56 | 1.15 | 0.64 | 0.36 |
